This passage reports Fold diff results from patent publication US20220332804A1 (CSL INNOVATION, published 2022).

Common to all, as to experiment: SPR; KD relative to WT C2;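 also: biacore SPR at 37 °C, anti-C2 mAbs captured on an anti-human IgG chip, alanine or serine C2 surface mutants tested, KD from 1:1 fit compared with wild-type C2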
In one test the target is T1, human C2 R519A (human, UniProt P06681 21-752).
T1 sequence: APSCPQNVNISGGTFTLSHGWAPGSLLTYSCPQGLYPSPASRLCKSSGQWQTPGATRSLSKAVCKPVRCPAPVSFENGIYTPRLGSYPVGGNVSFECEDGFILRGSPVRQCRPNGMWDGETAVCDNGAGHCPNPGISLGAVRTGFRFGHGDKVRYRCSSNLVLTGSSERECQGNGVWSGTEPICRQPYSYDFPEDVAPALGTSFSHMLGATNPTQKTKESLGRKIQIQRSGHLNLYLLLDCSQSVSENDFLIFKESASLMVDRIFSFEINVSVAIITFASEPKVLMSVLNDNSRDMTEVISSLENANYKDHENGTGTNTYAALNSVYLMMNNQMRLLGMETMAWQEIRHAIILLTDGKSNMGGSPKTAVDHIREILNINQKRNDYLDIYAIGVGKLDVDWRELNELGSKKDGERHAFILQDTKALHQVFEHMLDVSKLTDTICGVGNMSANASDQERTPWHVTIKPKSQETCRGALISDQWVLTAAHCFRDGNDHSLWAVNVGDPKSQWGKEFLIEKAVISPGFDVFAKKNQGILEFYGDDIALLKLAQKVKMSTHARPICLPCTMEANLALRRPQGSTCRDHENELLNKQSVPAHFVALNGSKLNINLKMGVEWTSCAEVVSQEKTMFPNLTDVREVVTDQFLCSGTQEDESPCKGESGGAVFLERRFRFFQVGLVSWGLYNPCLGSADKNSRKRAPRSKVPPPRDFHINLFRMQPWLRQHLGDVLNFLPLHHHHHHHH

A further test has as its target T2, human C2 N325A (human, UniProt P06681 21-752).
T2 sequence: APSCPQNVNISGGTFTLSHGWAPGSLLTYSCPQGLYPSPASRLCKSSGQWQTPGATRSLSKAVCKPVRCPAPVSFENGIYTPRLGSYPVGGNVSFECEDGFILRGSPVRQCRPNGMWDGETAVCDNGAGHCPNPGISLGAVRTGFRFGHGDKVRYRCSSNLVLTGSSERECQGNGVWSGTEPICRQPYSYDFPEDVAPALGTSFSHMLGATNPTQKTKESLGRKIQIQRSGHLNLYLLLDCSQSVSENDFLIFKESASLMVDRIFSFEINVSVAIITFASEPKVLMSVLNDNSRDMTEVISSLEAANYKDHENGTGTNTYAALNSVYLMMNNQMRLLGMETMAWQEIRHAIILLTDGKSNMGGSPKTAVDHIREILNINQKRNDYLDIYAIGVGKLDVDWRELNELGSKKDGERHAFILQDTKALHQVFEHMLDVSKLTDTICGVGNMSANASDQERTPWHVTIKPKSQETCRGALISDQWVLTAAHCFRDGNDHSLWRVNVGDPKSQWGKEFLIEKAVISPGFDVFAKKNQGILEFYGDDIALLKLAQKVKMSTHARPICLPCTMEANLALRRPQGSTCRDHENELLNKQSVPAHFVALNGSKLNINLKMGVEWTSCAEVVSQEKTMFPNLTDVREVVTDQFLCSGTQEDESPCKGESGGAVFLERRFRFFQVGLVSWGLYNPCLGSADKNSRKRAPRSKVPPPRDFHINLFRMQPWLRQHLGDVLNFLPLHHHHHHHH

The next test addresses T3, human C2 N471A (human, UniProt P06681 21-752).
T3 sequence: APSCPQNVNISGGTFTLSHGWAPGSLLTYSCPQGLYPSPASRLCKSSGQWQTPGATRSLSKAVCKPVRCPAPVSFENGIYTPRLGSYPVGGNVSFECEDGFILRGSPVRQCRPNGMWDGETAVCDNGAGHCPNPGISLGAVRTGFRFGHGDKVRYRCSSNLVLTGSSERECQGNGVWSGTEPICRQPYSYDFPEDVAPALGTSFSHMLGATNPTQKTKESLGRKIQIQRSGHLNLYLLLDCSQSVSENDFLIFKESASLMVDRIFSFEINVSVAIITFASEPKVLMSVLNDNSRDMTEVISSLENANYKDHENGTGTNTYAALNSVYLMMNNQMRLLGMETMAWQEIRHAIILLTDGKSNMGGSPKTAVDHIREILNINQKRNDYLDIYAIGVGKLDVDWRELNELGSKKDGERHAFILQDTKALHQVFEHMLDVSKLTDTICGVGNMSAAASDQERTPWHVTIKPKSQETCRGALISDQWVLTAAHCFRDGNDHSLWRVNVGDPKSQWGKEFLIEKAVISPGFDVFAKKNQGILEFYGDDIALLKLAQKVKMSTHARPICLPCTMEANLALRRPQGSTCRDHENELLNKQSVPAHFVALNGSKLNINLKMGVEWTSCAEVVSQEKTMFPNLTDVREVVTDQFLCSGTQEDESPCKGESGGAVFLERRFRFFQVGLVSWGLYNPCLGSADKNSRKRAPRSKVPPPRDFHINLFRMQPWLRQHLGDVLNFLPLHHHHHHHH

The next test deals with T4, human C2 D417A (human, UniProt P06681 21-752).
T4 sequence: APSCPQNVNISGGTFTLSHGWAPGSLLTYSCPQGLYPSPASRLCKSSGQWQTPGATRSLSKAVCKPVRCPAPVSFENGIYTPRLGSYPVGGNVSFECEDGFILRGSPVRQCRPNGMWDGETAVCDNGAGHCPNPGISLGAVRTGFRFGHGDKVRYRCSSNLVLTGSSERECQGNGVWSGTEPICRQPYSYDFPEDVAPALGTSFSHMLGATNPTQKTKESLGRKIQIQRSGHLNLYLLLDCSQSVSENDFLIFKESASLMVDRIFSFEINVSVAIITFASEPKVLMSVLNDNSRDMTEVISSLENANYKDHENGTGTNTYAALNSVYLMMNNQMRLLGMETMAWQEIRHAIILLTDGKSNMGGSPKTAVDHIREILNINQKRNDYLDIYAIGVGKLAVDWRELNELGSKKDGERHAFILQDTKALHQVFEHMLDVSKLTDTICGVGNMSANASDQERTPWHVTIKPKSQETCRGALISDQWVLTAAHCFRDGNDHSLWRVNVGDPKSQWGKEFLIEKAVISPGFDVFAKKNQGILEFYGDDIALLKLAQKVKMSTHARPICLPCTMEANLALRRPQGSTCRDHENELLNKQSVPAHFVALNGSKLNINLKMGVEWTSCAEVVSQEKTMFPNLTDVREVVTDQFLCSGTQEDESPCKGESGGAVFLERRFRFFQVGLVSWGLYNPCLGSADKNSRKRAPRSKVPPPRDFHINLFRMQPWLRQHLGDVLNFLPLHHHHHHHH

B1: RF16-214 (antibody, V domains shown)
VH: EVQLLESGGGLVQPGGSLRLSCAASGFTFSWYQMMWVRQAPGKGLEWVSRIYPSGGGTAYADSVKGRFTISRDNSKNTLYLQMNSLRAEDTAVYYCARDAGYGDNWGQGTLVTVSS
VL: QSALTQPPSVSVSPGQTASITCSGDKLGEKYASWYQQKAGQSPVMVIYQDRKRPSGIPERFSGSNSGNTATLTISGTQAMDEADYYCQAWDTRAVVFGGGTKLTVLG
In the case of B1, the Fold diff with human C2 R519A is 1 fold; with human C2 N325A, 11 fold; with human C2 N471A, 1 fold; with human C2 D417A, 2 fold.
